Reference: the supplement of paper PMC10126150
± gives the standard deviation of the averaged measurements.

System: ATP
Assay: switch fluorescence ratio, 500 uM ATP over buffer (Cy3 cluster intensity, sum of 5 cycles each) (fold (ratio)); higher = stronger signal-on switching upon ATP binding; sequences stand for … in TCGTCGGCAGCGTCAGATGTGTATAAGAGACAGTTTTTTTTTTTTTTTTTTTTTTTTT…TC
Settings: aptamer strand: ATP DNA aptamer (quencher-CACCTGGGGGAGTATTGCGGAGGAAGG + anchor), 100 nM annealed; ATP concentration: 500 uM
In short: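 Cy3-labelled switching-strand clusters on a modified Illumina MiSeq flow-cell were annealed to 100 nM quencher-labelled ATP aptamer, imaged in selection buffer, then imaged after 15 min with 500 uM ATP at 22 °C. Five buffer/ATP cycles ran, with NaOH stripping and re-annealing between them. The fluorescence ratio is summed target-cycle over summed buffer-cycle Cy3 intensity per cluster, averaged per switch-domain sequence. Clusters outside 100-1000 RFU were excluded.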
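Further: ATP exposure 15 min at 22 °C before imaging.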

ATCCGAGGAG
switch fluorescence ratio: 1.05 ± 0.012

TTTTAACTAA
switch fluorescence ratio: 1.005 ± 0.0046

TTAAACGGGA
switch fluorescence ratio: 1.03 ± 0.024

AATTGGTCAT
switch fluorescence ratio: 1 ± 0.018

CGTTCGACTG
switch fluorescence ratio: 0.97 ± 0.025

TTGTGGGGAG
switch fluorescence ratio: 0.97 ± 0.024

GGGTAGAGTT
switch fluorescence ratio: 0.9659 ± 0.0052

GTTGGGGTTT
switch fluorescence ratio: 1.01 ± 0.031

AAGTCCCTTC
switch fluorescence ratio: 1.01 ± 0.035

CTGAGTTGGG
switch fluorescence ratio: 0.9793 ± 0.0042

GTTGAAACTT
switch fluorescence ratio: 0.9976 ± 0.004

CCTCGGTTTT
switch fluorescence ratio: 1.24 ± 0.013

TTGTCCTAGT
switch fluorescence ratio: 1.008 ± 0.0012

TAGGGGCGAT
switch fluorescence ratio: 1.01 ± 0.032

GGTTTAAAGG
switch fluorescence ratio: 0.996 ± 0.015

GGATTTGGGG
switch fluorescence ratio: 0.9878 ± 0.0073

TAAGATAGTA
switch fluorescence ratio: 0.993 ± 0.023

CGAGGGTTTG
switch fluorescence ratio: 0.9968 ± 0.0032

TGGCATCTGT
switch fluorescence ratio: 0.972 ± 0.03

TTCTTCGGAT
switch fluorescence ratio: 1.09 ± 0.11

CGAGGAGGGA
switch fluorescence ratio: 0.9686 ± 0.0093

TACACGGTCA
switch fluorescence ratio: 1.047 ± 0.0054

GTTACTGCGG
switch fluorescence ratio: 0.98 ± 0.021

AATTGTTTAT
switch fluorescence ratio: 0.9998 ± 0.0092

TTTCGGACGC
switch fluorescence ratio: 1.35 ± 0.33

GTTGGGGGGG
switch fluorescence ratio: 1.01 ± 0.03

TTTCAGGTCC
switch fluorescence ratio: 1.03 ± 0.065

TTTTTATGC
switch fluorescence ratio: 0.975 ± 0.071

GCGATATAGT
switch fluorescence ratio: 1.03 ± 0.074

GGGGCGCGGA
switch fluorescence ratio: 1.09 ± 0.12

TTTAGATATT
switch fluorescence ratio: 0.98873 ± 0.00041

TCGCTAATTG
switch fluorescence ratio: 1.04 ± 0.022

GGTGGGGCAC
switch fluorescence ratio: 0.999 ± 0.041

TGATGCGTGT
switch fluorescence ratio: 0.999 ± 0.027

TAGCTGTTAT
switch fluorescence ratio: 0.997 ± 0.03

ACAGCGGCTA
switch fluorescence ratio: 1.02 ± 0.017

CATCTTGGAA
switch fluorescence ratio: 1.01 ± 0.015

CGTGGTTGAG
switch fluorescence ratio: 0.976 ± 0.018

GTTAGGTTAT
switch fluorescence ratio: 1 ± 0.018

GTTCAAAAGC
switch fluorescence ratio: 0.98 ± 0.034

TTAATTATCA
switch fluorescence ratio: 0.998 ± 0.018

ATGTTTTATC
switch fluorescence ratio: 0.994 ± 0.016

TTCTGGTTTT
switch fluorescence ratio: 0.9727 ± 0.0026

CTCAGGCAAT
switch fluorescence ratio: 2.61 ± 0.45

AAAATACTAT
switch fluorescence ratio: 1.02 ± 0.026

ATCATGTCTA
switch fluorescence ratio: 1.04 ± 0.047

ACTGGTTGGG
switch fluorescence ratio: 0.966 ± 0.018

TTGAAATTAA
switch fluorescence ratio: 1.01 ± 0.025

AGGAAGCTCT
switch fluorescence ratio: 1.03 ± 0.023

ACTTGGCGTC
switch fluorescence ratio: 1.02 ± 0.06

TTGTGTGTTA
switch fluorescence ratio: 0.9687 ± 0.0052

TTTACCGTCT
switch fluorescence ratio: 1.04 ± 0.018

GAATAGTCAG
switch fluorescence ratio: 0.978 ± 0.033

TTTGGGGAAG
switch fluorescence ratio: 1.01 ± 0.025

GGTATGTTTT
switch fluorescence ratio: 0.978 ± 0.037

TAGCGAATAG
switch fluorescence ratio: 1.19 ± 0.043

CGGGCCATAG
switch fluorescence ratio: 1.03 ± 0.044

CATGTATGGA
switch fluorescence ratio: 1.01 ± 0.041

TTAATGGGGG
switch fluorescence ratio: 1.06 ± 0.25

AAGTGTCGGG
switch fluorescence ratio: 0.994 ± 0.025

TATTAGTTTT
switch fluorescence ratio: 1.02 ± 0.047

TCGTTTAGTG
switch fluorescence ratio: 0.981 ± 0.018

ATTAATCCAT
switch fluorescence ratio: 0.987 ± 0.019

ATTATTTGTC
switch fluorescence ratio: 1.01 ± 0.044

CGGGGATGTA
switch fluorescence ratio: 0.972 ± 0.031

GGCTGTGTTT
switch fluorescence ratio: 0.981 ± 0.028

TGGGCCTATT
switch fluorescence ratio: 0.976 ± 0.063

TGGCCTATCC
switch fluorescence ratio: 1.17 ± 0.04

CTTTTACATG
switch fluorescence ratio: 1.003 ± 0.0095

TTGGGGTTAA
switch fluorescence ratio: 1.03 ± 0.058

GGGGGAACAC
switch fluorescence ratio: 1.05 ± 0.044

TTTCGTGTGT
switch fluorescence ratio: 0.97 ± 0.0097

GCTTCTGGGG
switch fluorescence ratio: 1.03 ± 0.028

GGTAGCAAGT
switch fluorescence ratio: 1.05 ± 0.034

AGCAGGGTGG
switch fluorescence ratio: 1.02 ± 0.038

AGAGGTGGGG
switch fluorescence ratio: 0.968 ± 0.012

GGGTGATGTG
switch fluorescence ratio: 0.955 ± 0.022

CCTATCACAA
switch fluorescence ratio: 3.47 ± 0.46

GTAATTTATC
switch fluorescence ratio: 1.0089 ± 0.00052

TGAAGACTGA
switch fluorescence ratio: 1 ± 0.012

AGACATCCTT
switch fluorescence ratio: 1.04 ± 0.014

GGGAAACTTG
switch fluorescence ratio: 0.988 ± 0.017

CTACTTATTT
switch fluorescence ratio: 1.02 ± 0.024

GGGCCTTGGG
switch fluorescence ratio: 1.03 ± 0.049

GGGGATCGTT
switch fluorescence ratio: 1.02 ± 0.021

GTTAGTGTAG
switch fluorescence ratio: 0.9975 ± 0.0011

TAACGCTGCC
switch fluorescence ratio: 1.25 ± 0.12

TTTAAAGGTT
switch fluorescence ratio: 1.02 ± 0.054

AAGGGGGGA
switch fluorescence ratio: 1.01 ± 0.072

CCTAAGAATG
switch fluorescence ratio: 1.043 ± 0.0035

CAGATTGGGG
switch fluorescence ratio: 1 ± 0.025

AAACATGGAG
switch fluorescence ratio: 1 ± 0.019

GGAGGGTGTC
switch fluorescence ratio: 0.988 ± 0.044

ATAGGAGAGT
switch fluorescence ratio: 1.003 ± 0.0091

GCGCTTGAAT
switch fluorescence ratio: 0.982 ± 0.018

GAGGTGAGTT
switch fluorescence ratio: 0.983 ± 0.01

GACAAGGAGG
switch fluorescence ratio: 1.02 ± 0.028

GGTGTCTTCA
switch fluorescence ratio: 1.06 ± 0.076

GGTTATGAGG
switch fluorescence ratio: 0.994 ± 0.031

TGTTGCTGGA
switch fluorescence ratio: 1 ± 0.03

CTTGAACGAA
switch fluorescence ratio: 1.02 ± 0.04

ATCTGTATCC
switch fluorescence ratio: 1.05 ± 0.04

GCTCTAGTTT
switch fluorescence ratio: 1.02 ± 0.027

TTCCGACTCT
switch fluorescence ratio: 1.31 ± 0.014

AATTTAGTGC
switch fluorescence ratio: 0.998 ± 0.07

CATTTTGTTG
switch fluorescence ratio: 1.01 ± 0.024

TAGGAGCTTG
switch fluorescence ratio: 1 ± 0.042

TTAGTGATAC
switch fluorescence ratio: 2.49 ± 0.42

GGGGACGACC
switch fluorescence ratio: 1.03 ± 0.017

GGGGTCTAAT
switch fluorescence ratio: 0.999 ± 0.048

TTTTGGAAGC
switch fluorescence ratio: 1.03 ± 0.034

ATCATGGGGG
switch fluorescence ratio: 0.986 ± 0.022

TATTCCTTGG
switch fluorescence ratio: 0.966 ± 0.012

CTTCGGGGTT
switch fluorescence ratio: 1.03 ± 0.035

GGGGGATGTA
switch fluorescence ratio: 0.948 ± 0.032

TGTGCAAAGG
switch fluorescence ratio: 0.997 ± 0.042

TTCCGGGGGA
switch fluorescence ratio: 1.08 ± 0.11

GCACGGTCGG
switch fluorescence ratio: 1.009 ± 0.0021

GCCGATGCGG
switch fluorescence ratio: 0.988 ± 0.013

ATCGGCAGGC
switch fluorescence ratio: 1.22 ± 0.075

CCAGGACGTA
switch fluorescence ratio: 1.02 ± 0.027

TGGCGCCGGT
switch fluorescence ratio: 0.995 ± 0.01

GGGAGGGATG
switch fluorescence ratio: 1.02 ± 0.024

AATAAGGGGC
switch fluorescence ratio: 1.0051 ± 0.00093

GGTTGTTTTG
switch fluorescence ratio: 1.017 ± 0.0097

TGGGATGATG
switch fluorescence ratio: 1.008 ± 0.0095

AGGGGGGACG
switch fluorescence ratio: 0.915 ± 0.098

AAAAGAGGGG
switch fluorescence ratio: 1 ± 0.031

TTTGGAAAAA
switch fluorescence ratio: 0.996 ± 0.032

GCAGGCCGAG
switch fluorescence ratio: 1.05 ± 0.037

CGCTTACTTT
switch fluorescence ratio: 1.24 ± 0.021

AGTAGAGTTT
switch fluorescence ratio: 0.987 ± 0.013

GGGAGGCGGG
switch fluorescence ratio: 0.99 ± 0.019

CCATAGGGGG
switch fluorescence ratio: 0.989 ± 0.025

CAATATATTT
switch fluorescence ratio: 0.982 ± 0.0049

GGCTGCTTTC
switch fluorescence ratio: 1.03 ± 0.055

GATGTTTGGT
switch fluorescence ratio: 0.99 ± 0.021

GAGTGAGTGG
switch fluorescence ratio: 1.019 ± 0.0056

CGTTATTGAA
switch fluorescence ratio: 0.9834 ± 0.0067

GAAAATTAGT
switch fluorescence ratio: 1.016 ± 0.0023

AGTTTATGCA
switch fluorescence ratio: 1 ± 0.017

GGTCGCCTCA
switch fluorescence ratio: 0.9687 ± 0.0086

CTTAACATGC
switch fluorescence ratio: 1.06 ± 0.049

TGTCCCAAGC
switch fluorescence ratio: 1.18 ± 0.03

TTACTTGACT
switch fluorescence ratio: 1.116 ± 0.0085

AATATGGAGG
switch fluorescence ratio: 0.985 ± 0.033

AGGAGTGTGG
switch fluorescence ratio: 1.01 ± 0.031

TTGAGAAAGT
switch fluorescence ratio: 1.47 ± 0.68

GGGTATTTTA
switch fluorescence ratio: 0.988 ± 0.057

ATAGAGGTGA
switch fluorescence ratio: 1.019 ± 0.0022

CGGGTTAAAC
switch fluorescence ratio: 1 ± 0.027

GTTTCGGGCT
switch fluorescence ratio: 1.01 ± 0.012

GATTTATATC
switch fluorescence ratio: 0.993 ± 0.028

ATAACGGGGG
switch fluorescence ratio: 1 ± 0.033

TGTTGGACGG
switch fluorescence ratio: 1.07 ± 0.037

AAACAGAATG
switch fluorescence ratio: 0.975 ± 0.014

ATTTAAAAGT
switch fluorescence ratio: 0.991 ± 0.037

AAATGGTGGT
switch fluorescence ratio: 1.02 ± 0.018

GCAGCTGGTT
switch fluorescence ratio: 0.994 ± 0.026

CCACGGGGGG
switch fluorescence ratio: 1.27 ± 0.1

TTCGTGTCAG
switch fluorescence ratio: 0.995 ± 0.023

TTTTTCTTCG
switch fluorescence ratio: 1.21 ± 0.099

TTTTTAGGAT
switch fluorescence ratio: 1.11 ± 0.17

CCATGTTGAT
switch fluorescence ratio: 1 ± 0.039

TATATTTAGT
switch fluorescence ratio: 0.973 ± 0.028

CTGTTAGGAT
switch fluorescence ratio: 0.99 ± 0.028

GTCGGGGGTT
switch fluorescence ratio: 1.02 ± 0.049

GATAGTGGGA
switch fluorescence ratio: 0.997 ± 0.018

GGGTGAGTG
switch fluorescence ratio: 0.996 ± 0.016

TCGATCCCGA
switch fluorescence ratio: 1.017 ± 0.0072

GGGCAGGCTT
switch fluorescence ratio: 0.98 ± 0.017

TGATTTTGGG
switch fluorescence ratio: 0.997 ± 0.035

GTGGATCAAA
switch fluorescence ratio: 1.02 ± 0.049

ATGTCAGATT
switch fluorescence ratio: 1.01 ± 0.037

AAAGATCGGA
switch fluorescence ratio: 0.983 ± 0.038

GAGTTATTCG
switch fluorescence ratio: 1.02 ± 0.023

TTTTAAAGGT
switch fluorescence ratio: 1.01 ± 0.024

AGATAAGTTT
switch fluorescence ratio: 1.01 ± 0.034

GAAGGTGGCT
switch fluorescence ratio: 1.01 ± 0.026

TTTGCTCGGG
switch fluorescence ratio: 1.003 ± 0.002

GTGTATTTTG
switch fluorescence ratio: 0.996 ± 0.014

AGCTAGCAGG
switch fluorescence ratio: 0.974 ± 0.039

ATAACGCTCG
switch fluorescence ratio: 1 ± 0.018

ATACGGATGC
switch fluorescence ratio: 1.06 ± 0.025

AGTAGTTGGG
switch fluorescence ratio: 0.967 ± 0.037

CATTTATGCC
switch fluorescence ratio: 1.17 ± 0.31

ATTCAGTCAT
switch fluorescence ratio: 0.9901 ± 0.0021

TTGATAGTCG
switch fluorescence ratio: 0.969 ± 0.024

GTGGGTAGAG
switch fluorescence ratio: 1 ± 0.057

AGTGGGATTT
switch fluorescence ratio: 0.993 ± 0.039

CATACACCTT
switch fluorescence ratio: 1.21 ± 0.032

AGGTAGGTGT
switch fluorescence ratio: 1.04 ± 0.023

TTTTCCTGCT
switch fluorescence ratio: 1.07 ± 0.082

GGGAGGTTTT
switch fluorescence ratio: 1.04 ± 0.084

AGATTGTACA
switch fluorescence ratio: 1.02 ± 0.02

GGCGTCAGAC
switch fluorescence ratio: 1 ± 0.031

TCAATCGTGG
switch fluorescence ratio: 1.01 ± 0.021

TTGGATTTTT
switch fluorescence ratio: 0.992 ± 0.041

CTATGCAATT
switch fluorescence ratio: 3.33 ± 0.29

AGGGCAAGGA
switch fluorescence ratio: 1.11 ± 0.16
